In patent US20190016794A1 (Boehringer Ingelheim, published 2019):
Substitutions are numbered along the chain they refer to. Where “and” joins values, the source holds several entries; their conditions need not be identical. Equal values may be shown once.

T1: recombinant human IL23 (human, UniProt P29460 23-328)
T1 sequence 1: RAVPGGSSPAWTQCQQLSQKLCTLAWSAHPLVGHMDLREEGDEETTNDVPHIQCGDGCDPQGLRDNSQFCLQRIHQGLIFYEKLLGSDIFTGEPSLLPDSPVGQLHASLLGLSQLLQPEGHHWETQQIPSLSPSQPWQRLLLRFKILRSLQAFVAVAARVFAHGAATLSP
T1 sequence 2: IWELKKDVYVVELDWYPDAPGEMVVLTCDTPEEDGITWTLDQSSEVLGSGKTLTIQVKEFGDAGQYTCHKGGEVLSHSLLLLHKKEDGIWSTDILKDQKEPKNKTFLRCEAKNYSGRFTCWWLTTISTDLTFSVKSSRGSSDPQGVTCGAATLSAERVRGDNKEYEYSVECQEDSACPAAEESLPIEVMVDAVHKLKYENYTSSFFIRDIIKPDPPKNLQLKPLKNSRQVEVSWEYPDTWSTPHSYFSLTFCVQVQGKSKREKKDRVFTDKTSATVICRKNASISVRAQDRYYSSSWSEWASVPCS

T2: recombinant cynomolgus IL23 (cynomolgus)
T2 chain 1: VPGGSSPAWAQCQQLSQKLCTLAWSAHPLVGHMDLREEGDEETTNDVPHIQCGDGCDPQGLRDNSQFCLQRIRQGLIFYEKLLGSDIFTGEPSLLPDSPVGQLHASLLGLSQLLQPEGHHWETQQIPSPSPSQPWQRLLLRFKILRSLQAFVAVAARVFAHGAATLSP
T2 chain 2: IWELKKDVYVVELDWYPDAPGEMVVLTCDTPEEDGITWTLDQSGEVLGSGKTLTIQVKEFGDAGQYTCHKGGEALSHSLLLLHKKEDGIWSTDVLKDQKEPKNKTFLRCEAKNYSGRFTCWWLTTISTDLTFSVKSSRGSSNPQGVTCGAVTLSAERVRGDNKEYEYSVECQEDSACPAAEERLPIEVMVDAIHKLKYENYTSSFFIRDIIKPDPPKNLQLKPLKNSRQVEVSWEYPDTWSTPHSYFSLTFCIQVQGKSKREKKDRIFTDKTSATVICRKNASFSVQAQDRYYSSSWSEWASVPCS

B1: Control Antibody 3 (IL23 monoclonal antibody) (antibody, V domains shown)
VH: QVQLVQSGAEVKKPGSSVKVSCKASGYTFTDQTIHWMRQAPGQGLEWIGYIYPRDDSPKYNENFKGKVTITADKSTSTAYMELSSLRSEDTAVYYCAIPDRSGYAWFIYWGQGTLVTVSS
VL: DIQMTQSPSSLSASVGDRVTITCKASRDVAIAVAWYQQKPGKVPKLLIYWASTRHTGVPSRFSGSGSRTDFTLTISSLQPEDVADYFCHQYSSYPFTFGSGTKLEIK
B2: Compound P (bispecific antibody)
chain 1: not shown
chain 2: EIVLTQSPATLSLSPGERATLSCRASQSVYSYLAWYQQKPGQAPRLLIYDASNRATGIPARFSGSGSGTDFTLTISSLEPEDFAVYYCQQRSNWPPFTFGPGTKVDIKGGGSGGGGQVQLVQSGAEVKKPGSSVKVSCKASGYTFTDQTIHWMRQAPGQGLEWIGYIYPRDDSPKYNENFKGKVTITADKSTSTAYMELSSLRSEDTAVYYCAIPDRSGYAWFIYWGQGTLVTVSSVEPKSSRTVAAPSVFIFPPSDEQLKSGTASVVCLLNNFYPREAKVQWKVDNALQSGNSQESVTEQDSKDSTYSLSSTLTLSKADYEKHKVYACEVTHQGLSSPVTKSFNRGEC
B3: Compound F (bispecific antibody)
chain 1: DIQMTQSPSSLSASVGDRVTITCKASRDVAIAVAWYQQKPGKVPKLLIYWASTRHTGVPSRFSGSGSRTDFTLTISSLQPEDVADYFCHQYSSYPFTFGSGTKLEIKGGGSGGGGQVQLVESGGGVVQPGRSLRLSCAASGFIFSSYAMHWVRQAPGNGLEWVAFMSYDGSNKKYADSVKGRFTISRDNSKNTLYLQMNSLRAEDTAVYYCARDRGIAAGGNYYYYGMDVWGQGTTVTVSSFNRGESASTKGPSVFPLAPSSKSTSGGTAALGCLVKDYFPEPVTVSWNSGALTSGVHTFPAVLQSSGLYSLSSVVTVPSSSLGTQTYICNVNHKPSNTKVDKRVEPKSCDKTHTCPPCPAPEAAGGPSVFLFPPKPKDTLYITREPEVTCVVVDVSHEDPEVKFNWYVDGVEVHNAKTKPREEQYNSTYRVVSVLTVLHQDWLNGKEYKCKVSNKALPAPIEKTISKAKGQPREPQVYTLPPSREEMTKNQVSLTCLVKGFYPSDIAVEWESNGQPENNYKTTPPVLDSDGSFFLYSKLTVDKSRWQQGNVFSCSVMHEALHNHYTQKSLSLSPGK
chain 2: B2 chain 2
B4: Compound O (bispecific antibody)
chain 1: not shown
chain 2: B2 chain 2 with V237L, E238G, P239G, K240G, S242G
notes: GS linkers, isotype IgG1KO; counterpart of Compound E without YTE; also called Compound 0
B5: Compound G (bispecific antibody)
chain 1: EIVLTQSPATLSLSPGERATLSCRASQSVYSYLAWYQQKPGQAPRLLIYDASNRATGIPARFSGSGSGTDFTLTISSLEPEDFAVYYCQQRSNWPPFTFGPGTKVDIKGGGSGGGGQVQLVQSGAEVKKPGSSVKVSCKASGYTFTDQTIHWMRQAPGQGLEWIGYIYPRDDSPKYNENFKGKVTITADKSTSTAYMELSSLRSEDTAVYYCAIPDRSGYAWFIYWGQGTLVTVSSLGGGSGASTKGPSVFPLAPSSKSTSGGTAALGCLVKDYFPEPVTVSWNSGALTSGVHTFPAVLQSSGLYSLSSVVTVPSSSLGTQTYICNVNHKPSNTKVDKRVEPKSCDKTHTCPPCPAPEAAGGPSVFLFPPKPKDTLYITREPEVTCVVVDVSHEDPEVKFNWYVDGVEVHNAKTKPREEQYNSTYRVVSVLTVLHQDWLNGKEYKCKVSNKALPAPIEKTISKAKGQPREPQVYTLPPSREEMTKNQVSLTCLVKGFYPSDIAVEWESNGQPENNYKTTPPVLDSDGSFFLYSKLTVDKSRWQQGNVFSCSVMHEALHNHYTQKSLSLSPGK
chain 2: DIQMTQSPSSLSASVGDRVTITCKASRDVAIAVAWYQQKPGKVPKLLIYWASTRHTGVPSRFSGSGSRTDFTLTISSLQPEDVADYFCHQYSSYPFTFGSGTKLEIKGGGSGGGGQVQLVESGGGVVQPGRSLRLSCAASGFIFSSYAMHWVRQAPGNGLEWVAFMSYDGSNKKYADSVKGRFTISRDNSKNTLYLQMNSLRAEDTAVYYCARDRGIAAGGNYYYYGMDVWGQGTTVTVSSLGGGSGRTVAAPSVFIFPPSDEQLKSGTASVVCLLNNFYPREAKVQWKVDNALQSGNSQESVTEQDSKDSTYSLSSTLTLSKADYEKHKVYACEVTHQGLSSPVTKSFNRGEC
B6: Control antibody 2 (TNFa monoclonal antibody) (antibody, V domains shown)
VH: QVQLVESGGGVVQPGRSLRLSCAASGFIFSSYAMHWVRQAPGNGLEWVAFMSYDGSNKKYADSVKGRFTISRDNSKNTLYLQMNSLRAEDTAVYYCARDRGIAAGGNYYYYGMDVWGQGTTVTVSS
VL: EIVLTQSPATLSLSPGERATLSCRASQSVYSYLAWYQQKPGQAPRLLIYDASNRATGIPARFSGSGSGTDFTLTISSLEPEDFAVYYCQQRSNWPPFTFGPGTKVDIK
notes: Monoclonal antibody

Molecular target: T1, recombinant human IL23
Experiment: cell-based or functional assay

Row | huIL23 MSA IC50 [pM] | huIL23 MSA IC90 [pM] | Binder
1 | 53 | 350 | B1
2 | 200 | 1400 | B2
3 | 170 | 2300 | B3
4 | 210 | 2200 | B4

Molecular target: T2, recombinant cynomolgus IL23
Experiment: cell-based or functional assay

Row | CynoIL23 MSA IC50 [pM] | CynoIL23 MSA IC90 [pM] | Binder
5 | 17 | 240 | B1
6 | 97 | 1500 | B2
7 | 69 | 1500 | B3
8 | 120 | 800 | B4

Molecular target: T1, recombinant human IL23
Experiment: cell-based or functional assay
Remark: another data set of the same source

Row | Dual Phospho DB-pSTAT3 IC50 [pM] | Dual Phospho DB-pSTAT3 IC90 [pM] | Binder
9 | 89 | 230 | B1
10 | 340 | 630 | B2
11 | 360 | 980 | B3
12 | 210 | 580 | B4

Molecular target: T3, human TNF-alpha (human, UniProt P01375 77-233)
T3 sequence (P01375 77-233 limits assumed): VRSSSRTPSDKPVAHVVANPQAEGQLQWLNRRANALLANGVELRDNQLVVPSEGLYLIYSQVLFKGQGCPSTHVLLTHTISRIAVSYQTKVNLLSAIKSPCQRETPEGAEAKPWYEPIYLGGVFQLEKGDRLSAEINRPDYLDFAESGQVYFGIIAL
Experiment: cell-based or functional assay

Row | Dual Phospho Jurkat-pNf-Kb IC50 [pM] | Dual Phospho Jurkat-pNf-Kb IC90 [pM] | Binder
13 | 290 | 340 | B2
14 | 280 | 760 | B3
15 | 210 | 740 | B4

Molecular target: T1, recombinant human IL23
Experiment: cell-based or functional assay
Remark: another data set of the same source

Row | GEOMEAN IC50, IL-23-dependent STAT3 activation (luciferase) [pM] | GEOMEAN IC90, IL-23-dependent STAT3 activation (luciferase) [pM] | First test IC50, IL-23-dependent STAT3 activation (luciferase) [pM] | Binder
16 | 93.1 | 191 |  | B1
17 | 203 | 831 | 187 | B5

Molecular target: T3, human TNF-alpha
Experiment: cell-based or functional assay
Remark: another data set of the same source

Row | TNF-IL8 Whole Blood IC50 [pM] | TNF-IL8 Whole Blood IC90 [pM] | Binder
18 | 290 | 420 | B2
19 | 310 | 450 | B3
20 | 320 | 470 | B4

Molecular target: T3, human TNF-alpha
Experiment: cell-based or functional assay
Remark: another data set of the same source

Row | Binder | L929 TNF Cytotox IC50 [pM] | L929 TNF Cytotox IC90 [pM]
21 | B2 | 3.4 | 14
22 | B3 | 2.5 | 10
23 | B4 | 4.2 | 16

Molecular target: T1, recombinant human IL23
Experiment: cell-based or functional assay
Remark: another data set of the same source

Row | IL23A pSTAT3 (MG) IC50 [pM] | IL23A pSTAT3 (MG) IC90 [pM] | Binder
24 | 35 | 140 | B1
25 | 69 | 480 | B2
26 | 90 | 650 | B3
27 | 160 | 650 | B4

Molecular target: cynomolgus TNF-alpha (cynomolgus, UniProt P79337 77-233, limits assumed)
Sequence (P79337 77-233 limits assumed): as the sequence (P01375 77-233 limits assumed) above, with L37V, R44T, T72N, R138L counted along it
Experiment: cell-based or functional assay

Row | HeLa IL8 Cyno-TNF IC50 [pM] | HeLa IL8 Cyno-TNF IC90 [pM] | Binder
28 | 280 | 1200 | B6
29 | 210 | 810 | B2
30 | 190 | 740 | B3
31 | 300 | 970 | B4

Molecular target: T3, human TNF-alpha
Experiment: cell-based or functional assay
Remark: another data set of the same source

Row | HeLa IL8 Hi-Hu-TNF IC50 [pM] | HeLa IL8 Hi-Hu-TNF IC90 [pM] | HeLa IL8 Lo-Hu-TNF IC50 [pM] | HeLa IL8 Lo-Hu-TNF IC90 [pM] | Binder
32 | 410 | 810 | 9.2 | 36 | B2
33 | 350 | 660 | 7.9 | 39 | B3
34 | 430 | 760 | 9.9 | 43 | B4

Molecular target: T4, membrane bound TNF-alpha
T4 construct: whole, on cells; also called mTNF; membrane expressed TNF-alpha
T4 sequence (P01375 whole entry): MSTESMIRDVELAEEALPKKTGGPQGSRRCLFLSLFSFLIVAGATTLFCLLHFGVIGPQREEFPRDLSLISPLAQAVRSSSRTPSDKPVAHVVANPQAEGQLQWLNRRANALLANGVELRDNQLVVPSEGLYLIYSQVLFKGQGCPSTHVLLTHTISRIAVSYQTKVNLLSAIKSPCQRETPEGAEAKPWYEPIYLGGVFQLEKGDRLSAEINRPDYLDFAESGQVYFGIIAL
Experiment: flow cytometry, mTNF-transfected CHO cells (geomean)
Protocol: (§1) All reagents were prepared in flow cytometry staining buffer (BioLegend). Membrane expressed TNF-alpha transfected cell lines (Jurkat and CHO) and parental cell lines were harvested from tissue culture vessels, washed, counted and resuspended to 1×10̂6 cells/ml in flow cytometry staining buffer. One hundred microliters of the cell suspension was added to 96 well microtiter plates and placed on ice. Titrations of test compounds were prepared and 50 uL was added to the cells. After sixty minute incubation on ice, the cell+test compounds were washed and 50 uL of a secondary antibody (Jackson ImmunoResearch) was added. The samples were incubated in the dark, at 4 C, for 60 minutes, followed by washes. After a final wash the cells were resuspended in 60 uL of fixative (BD Bioscience). Median fluorescence was determined for each sample in a flow cytometer and plotted versus the concentration of the test sample. EC₅₀ values were calculated using the 4 Parameter Logistic enabled by the Excel add-in XLfit (Activity Base software, ID Business Solutions, Ltd.).

Row | EC50 [pM] | Binder
35 | 310 | B6
36 | 770 | B4

Molecular target: T1, recombinant human IL23
Experiment: cell-based or functional assay
Remark: another data set of the same source

Row | hIL23 pSTAT3 DB assay IC50 [pM] | hIL23 pSTAT3 DB assay IC90 [pM] | Binder
37 | 160 | 310 | B1
38 | 300 | 620 | B2
39 | 260 | 600 | B3
40 | 300 | 720 | B4

Molecular target: T4, membrane bound TNF-alpha
Experiment: flow cytometry, mTNF-transfected Jurkat cells (geomean)
Protocol: as §1

Row | EC50 [pM] | Binder
41 | 230 | B6
42 | 270 | B4

Molecular target: T1, recombinant human IL23
Experiment: cell-based or functional assay
Remark: another data set of the same source

Row | IC50, IL-23-dependent STAT3 activation (DB-STAT3Luc10 luciferase) | IC90, IL-23-dependent STAT3 activation (DB-STAT3Luc10 luciferase) [pM] | Binder
43 | 96.5 pM and 104 pM and 80.3 pM |  | B1
44 | 220 pM | 1150 | B5
